Series [1] addresses T1, PI3K (Homo sapiens, UniProt P48736).
T1 construct: expressed in transfected cells; host or cells: NIH-3T3
Kind of series: βARK1 associated PI3K activity (lipid kinase assay) in transfected NIH-3T3 cells. Conditions: co-transfected βARKct cDNA; isoproterenol 2 min. Format: cell-based, Mouse.
Procedure: (§1) Cell Culture—Mouse NIH-3T3 and HEK293 cells were maintained in either Iscoves modified Dulbecco's medium or minimal essential medium (MEM) supplemented with 10% fetal bovine serum and 1:100 penicillin-streptomycin (10,000 U/ml) at 37° C. Cells were seeded at a density of ˜1-3×10^5 cells/35 mm^2 dish and at 70-80% confluence were transiently transfected using the transfection reagent FUGENE6 (ROCHE) or calcium phosphate precipitation. Cells were harvested 24 hours after transfection, re-plated in triplicate, allowed to grow overnight and serum starved for 2-4 hours before agonist stimulation.
(§2) Cytosolic and Membrane Fractionation—Cell monolayers were scraped in 1 ml of buffer containing 25 mM Tris-HCl (pH 7.5), 5 mM EDTA, 5 mM EGTA, 1 mM phenylmethylsulfonyl fluoride, 2 μg/ml each of leupeptin and aprotinin and disrupted further by using Dounce homogenizer. Intact cells and nuclei were removed by-centrifugation at 1,000×g for 5 min. The collected supernatant was further subject to a centrifugation at 38,000×g for 25 min. The pellet was resuspended in lysis buffer (1% Nonidet P-40, 10% glycerol, 137 mM NaCl, 20 mM Tris-Cl (ph 7.4), 1 mM phenylmethylsulfonyl fluoride, 20 mM NaF, 1 mM sodium pyrophosphate, 1 mM sodium orthovanadate and 2 μg/ml each of aprotinin and leupeptin) and used as membrane fraction and the supernatant was diluted in lysis buffer and used as the cytosolic fraction.
(§3) Lipid Kinase Assays—Cells were lysed in lysis buffer and 2 mg cytosolic extract was used for immunoprecipitation with either the C5/1 monoclonal antibody directed against βARK1, the anti-FLAG M2 monoclonal antibody (Sigma) or antibodies to p110γ, or p110β (Santa Cruz Biotechnology) and protein G-agarose. Sedimented beads were then washed once with 1 ml of lysis buffer, thrice with 1 ml of phosphate-buffered saline (1× phosphate-buffered saline, 1% NP-40 and 100 μM sodium orthovanadate), thrice with 1 ml of Tris/LiCl (100 mM Tris-HCl (pH 7.4), 5 mM LiCl and 100 μM sodium orthovanadate) and twice with TNE (10 mM Tris Cl (pH 7.4), 150 mM NaCl, 5 mM EDTA and 100 μM sodium orthovanadate). Samples were then resuspended in 50 ml of TNE and 10 μl of 100 mM MgCl2 was added to each sample. The substrate, phosphatidylinositol (PI, Avanti), was prepared by drying 50 μl of the 10 mg/ml stock (PI in chloroform) in an eppendorf tube with a stream of air and adding 250 μl of TE (10 mM Tris Cl (pH 7.4) and 1 mM EDTA). The PI was then suspended by sonication in an ice bath for 3 minutes. 10 p, of the PI solution and 11 μl of ATP solution (440 μM cold ATP and 1 μCi/μl of [γ-32P]ATP) were added to each sample. […] Autoradiography of dried plates was used to detect signals, and PIP was quantified by phosphorimaging. […] Values are expressed as fold increase/decrease relative to wild-type/control.

In series [2] the target is T2, PI3K (Homo sapiens, UniProt P48736, DEL30-30/Q459R).
T2 construct: expressed in transfected cells; host or cells: NIH-3T3
The series is described as above. The following applies: co-transfected βARKct cDNA. Format: cell-based, Mouse.
Procedure: as §1, §2, §3

A further series addresses T3, βARK1/PI3K interaction (Bos taurus, UniProt P21146).
T3 construct: recognizes both full length βARK1 and the βARKct; expressed in transfected cells; host or cells: HEK 293
T3 sequence (P21146 1-689): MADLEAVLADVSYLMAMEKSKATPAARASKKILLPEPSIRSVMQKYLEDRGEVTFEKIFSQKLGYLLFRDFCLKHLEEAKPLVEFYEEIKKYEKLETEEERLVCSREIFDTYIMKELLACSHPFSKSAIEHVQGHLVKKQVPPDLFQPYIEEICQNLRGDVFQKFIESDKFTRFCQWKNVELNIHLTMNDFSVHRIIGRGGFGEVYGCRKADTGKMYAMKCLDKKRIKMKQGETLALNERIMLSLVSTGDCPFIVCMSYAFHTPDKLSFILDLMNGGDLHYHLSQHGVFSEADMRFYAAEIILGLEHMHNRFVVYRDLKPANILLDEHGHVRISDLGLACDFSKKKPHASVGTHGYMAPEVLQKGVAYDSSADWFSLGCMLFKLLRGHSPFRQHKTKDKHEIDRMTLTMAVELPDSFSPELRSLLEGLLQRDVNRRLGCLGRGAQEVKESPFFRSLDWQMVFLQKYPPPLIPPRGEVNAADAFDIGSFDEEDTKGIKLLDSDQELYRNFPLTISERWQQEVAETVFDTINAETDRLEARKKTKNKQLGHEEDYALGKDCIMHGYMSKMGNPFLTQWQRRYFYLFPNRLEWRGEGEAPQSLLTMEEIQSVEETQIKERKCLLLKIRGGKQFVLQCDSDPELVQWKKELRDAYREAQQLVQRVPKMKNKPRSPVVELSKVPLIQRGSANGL
Kind of series: βARK1 associated PI3K activity in HEK 293 cells co-transfected with HEAT or PI3KΔHEAT. Format: cell-based. Conditions: 4 μg cDNA co-transfected with βARK1. As to the method:
The present inventors determined that overexpression of the 197 amino acid HEAT domain of PI3K competed for endogenous PI3K binding to βARK1 in living cells. HEK 293 cells were co-transfected with plasmids containing the βARK1 cDNA (2 μg) and increasing concentrations of the HEAT domain cDNA (ranging from 0 to 6 μg). […] The maximal reduction of βARK1 associated PI3K activity occurred when cells were co-transfected with 4 μg of HEAT cDNA (FIG. 9B). Summary results of n=5 experiments. *, p<0.0005. The data was normalized to βARK1 associated PI3K activity in cells transfected with βARK1 only. Furthermore, FLAG tagged HEAT protein co-immunoprecipitated with βARK1 monoclonal antibodies in the co-transfected HEK 293 cells.
The absence of the HEAT domain in an otherwise intact PI3K molecule affected the association of βARK1 with endogenous PI3K in cells. HEK 293 cells were co-transfected with plasmids containing cDNAs for βARK1 (2 μg), βARK1 plus HEAT (4 μg), and βARK1 plus PI3KΔHEAT (4 μg). Cell lysates were immunoprecipitated with a βARK1 monoclonal antibody and assayed for the associated PI3K activity. Expression of PI3KΔHEAT had no effect on the endogenous βARK1/PI3K interaction, whereas overexpression of HEAT abolished this interaction (FIGS. 9C and 9D). […] The data was normalized to βARK1 associated PI3K activity in cells transfected with βARK1 only.
Cytosolic and membrane fractions were prepared and analyzed for βARK1 associated PI3K activity. […] Membrane fractions were prepared from the HEK293 cells co-transfected with the βARK1 (2 μg), βARK1 and HEAT domain (4 μg) containing plasmids.

Series [3] can be described thus: Catalytic (lipid kinase) activity of PI3K mutant. The series is classed as biochemical. Conditions: compared with wild type PI3K. The text has this:
PI3KΔHEAT was constructed using 2 PCR reactions that selectively amplified regions of PI3K upstream and downstream from the HEAT domain (FIG. 8a). The region of PI3K upstream from HEAT was amplified using the forward primer (5′-[…]-3′) containing a BamHI site and Kozak consensus sequence, and the reverse primer (5′-[…]-3′) containing a SacI site. The region of PI3K downstream of the HEAT domain was amplified using the forward primer (5′-[…]-3′) containing a SacI site and the reverse primer (5′-[…]-3′) containing a BamHI site and a consensus stop codon. The upstream and downstream regions of PI3K were separately subcloned in the zero-blunt TOPO vector and sequence was verified by dideoxy sequencing. Following digestion with the restriction enzymes BamHI/SacI, a three fragment ligation was carried with the mammalian expression vector pRK5, to generate the plasmid containing the PI3KΔHEAT cDNA (FIG. 8a). […] The plasmids containing cDNAs encoding βARK1, FLAG-β2AR, HA-β2AR and p110γ have been described previously.

Another series deals with T4, βARK1 (Bos taurus, UniProt P21146).
T4 construct: gift from Dr. Robert Lefkowitz
T4 sequence (P21146 1-689): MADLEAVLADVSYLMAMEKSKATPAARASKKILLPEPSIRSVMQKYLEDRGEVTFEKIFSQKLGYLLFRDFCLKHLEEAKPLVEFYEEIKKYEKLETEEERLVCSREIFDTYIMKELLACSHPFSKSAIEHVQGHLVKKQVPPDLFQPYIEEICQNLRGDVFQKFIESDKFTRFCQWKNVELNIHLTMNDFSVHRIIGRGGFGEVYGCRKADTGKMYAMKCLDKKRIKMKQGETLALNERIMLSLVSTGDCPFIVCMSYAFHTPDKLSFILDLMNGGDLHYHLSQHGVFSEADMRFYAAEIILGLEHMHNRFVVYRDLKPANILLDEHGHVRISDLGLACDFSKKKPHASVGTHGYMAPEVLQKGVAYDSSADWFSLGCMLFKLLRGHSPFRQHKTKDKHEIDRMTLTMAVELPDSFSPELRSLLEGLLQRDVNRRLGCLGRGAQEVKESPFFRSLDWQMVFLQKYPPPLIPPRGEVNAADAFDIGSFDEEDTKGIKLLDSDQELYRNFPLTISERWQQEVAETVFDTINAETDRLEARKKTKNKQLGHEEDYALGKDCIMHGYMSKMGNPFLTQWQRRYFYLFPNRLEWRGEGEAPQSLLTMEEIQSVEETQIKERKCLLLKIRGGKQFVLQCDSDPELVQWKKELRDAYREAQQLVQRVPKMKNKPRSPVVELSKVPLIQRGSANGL
As to the kind of experiment: Co-immunoprecipitation and GST pull-down with purified βARK1. Conditions: immunoprecipitated FLAG-HEAT or PI3KΔHEAT-HA. The series is classed as binding. As for the experimental part: GST Fusion Protein Expression and Pull-down Experiments—Plasmid DNAs were transformed in Escherichia coli BL21 cells. Overnight cultures were grown in LB medium supplemented with ampicillin (100 μg/ml), diluted to an A600 of 0.2 in the same medium and grown for another 1 hr at 37° C. Cultured cells were then induced with 0.1 mM isopropyl-1-thio-β-D-galactopyranoside for 2 hr. Cell were then pelleted, washed once with 1× phosphate-buffered saline and resuspended in 1× phosphate-buffered saline containing 1 mM phenylmethylsulfonyl fluoride, 2 mg/ml lysozyme and incubated for 15 min on ice. Cells were lysed by adding Triton X-100 1%. Solublized cells were incubated with DNase (300 units) for 15 min on ice and centrifuged at 13,000 rpm for 10 min.
Glutathione-Sepharose beads were added to the supernatant and gently agitated at 4° C. for 2 hr. Beads were washed three times with ice cold 1×PBS containing 1% Triton X-100 followed by three washes with cold PBS without detergent. Protein concentration was determined using a DC protein assay kit (Bio Rad), and the integrity of the fusion protein was analyzed by SDS-polyacrylamide gel electrophoresis and Coomassie staining.
The beads were spun and washed three times with binding buffer followed by three washes with binding buffer without detergent. The beads were resuspended in SDS gel loading buffer and resolved by gel electrophoresis, immunblotting and detection was carried out described later.
FLAG-HEAT and PI3KΔHEAT proteins were immunoprecipitated from cell extracts using monoclonal FLAG and HA antibodies respectively, fractionated by SDS-PAGE and analyzed by immunoblotting with βARK1 monoclonal antibody. […] Levels of expression of HEAT and PI3KΔHEAT proteins were similar (FIG. 8B, lower panel).
To investigate whether there was a direct physical interaction between the HEAT domain of PI3K and βARK1, GST-HEAT fusion protein containing 535-732 amino acid residues of PI3Kγ was produced, which including the entire HEAT domain and flanking upstream 10 amino acids and downstream 7 amino acids. […]

T1 sequence (P48736 with tags, fused parts or gaps DEL30-30/Q459R): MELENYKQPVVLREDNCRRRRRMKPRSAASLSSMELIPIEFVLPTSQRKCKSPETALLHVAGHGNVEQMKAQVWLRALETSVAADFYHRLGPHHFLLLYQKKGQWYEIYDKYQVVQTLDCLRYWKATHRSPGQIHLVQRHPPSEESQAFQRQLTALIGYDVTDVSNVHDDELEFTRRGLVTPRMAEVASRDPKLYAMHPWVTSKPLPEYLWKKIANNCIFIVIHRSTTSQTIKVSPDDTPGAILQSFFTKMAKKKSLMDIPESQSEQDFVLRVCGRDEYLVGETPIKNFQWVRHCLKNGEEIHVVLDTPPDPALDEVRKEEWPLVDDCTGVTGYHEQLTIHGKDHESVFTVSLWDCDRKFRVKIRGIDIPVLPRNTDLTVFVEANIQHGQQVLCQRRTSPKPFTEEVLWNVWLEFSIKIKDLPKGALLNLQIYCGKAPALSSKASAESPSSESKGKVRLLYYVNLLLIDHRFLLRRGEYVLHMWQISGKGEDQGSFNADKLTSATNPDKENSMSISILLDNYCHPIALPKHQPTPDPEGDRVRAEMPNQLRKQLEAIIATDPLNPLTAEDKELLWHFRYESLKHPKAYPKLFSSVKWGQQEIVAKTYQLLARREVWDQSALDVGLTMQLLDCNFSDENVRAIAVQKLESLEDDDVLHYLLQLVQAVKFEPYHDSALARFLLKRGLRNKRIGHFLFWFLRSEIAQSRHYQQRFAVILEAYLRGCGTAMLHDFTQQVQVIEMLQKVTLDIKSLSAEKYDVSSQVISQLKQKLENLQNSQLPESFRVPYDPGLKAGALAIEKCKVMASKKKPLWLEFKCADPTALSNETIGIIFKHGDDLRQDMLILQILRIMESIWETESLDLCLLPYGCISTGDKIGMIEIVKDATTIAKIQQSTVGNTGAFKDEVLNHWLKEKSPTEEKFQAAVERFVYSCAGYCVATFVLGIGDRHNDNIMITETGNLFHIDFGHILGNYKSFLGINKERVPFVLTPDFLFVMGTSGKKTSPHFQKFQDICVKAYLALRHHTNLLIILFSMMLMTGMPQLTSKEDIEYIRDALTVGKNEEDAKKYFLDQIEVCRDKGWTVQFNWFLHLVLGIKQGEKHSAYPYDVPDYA
T2 sequence (P48736 with tags, fused parts or gaps DEL30-30/Q459R): as above

B1: βARKct: carboxyl terminus of βARK1 that attenuates the Gβγ dependent signaling (protein)
chain: GIKLLDSDQELYRNFPLTISERWQQEVAETVFDTINAETDRLEARKKTKNKQLGHEEDYALGKDCIMHGYMSKMGNPFLTQWQRRYFYLFPNRLEWRGEGEAPQSLLTMEEIQSVEETQIKERKCLLLKIRGGKQFVLQCDSDPELVQWKKELRDAYREAQQLVQRVPKMKNKPRSPVVELSKVPLIQRGSANGL
For the molecule B1, in the series with PI3K [1], the “agonist-dependent translocation of βARK1 associated PI3K activity to the membrane” value is recorded as “abolished”. For the same molecule, the “βARK1 associated PI3K activity in the cytosolic fraction” value with PI3K [2] is on record as “loss”.

B2: PI3KΔHEAT: HA tagged PI3K mutant with a deletion of the HEAT domain (protein)
chain: MELENYKQPVVLREDNCRRRRRMKPRSAASLSSMELIPIEFVLPTSQRKCKSPETALLHVAGHGNVEQMKAQVWLRALETSVAADFYHRLGPHHFLLLYQKKGQWYEIYDKYQVVQTLDCLRYWKATHRSPGQIHLVQRHPPSEESQAFQRQLTALIGYDVTDVSNVHDDELEFTRRGLVTPRMAEVASRDPKLYAMHPWVTSKPLPEYLWKKIANNCIFIVIHRSTTSQTIKVSPDDTPGAILQSFFTKMAKKKSLMDIPESQSEQDFVLRVCGRDEYLVGETPIKNFQWVRHCLKNGEEIHVVLDTPPDPALDEVRKEEWPLVDDCTGVTGYHEQLTIHGKDHESVFTVSLWDCDRKFRVKIRGIDIPVLPRNTDLTVFVEANIQHGQQVLCQRRTSPKPFTEEVLWNVWLEFSIKIKDLPKGALLNLQIYCGKAPALSSKASAESPSSESKGKVRLLYYVNLLLIDHRFLLRRGEYVLHMWQISGKGEDQGSFNADKLTSATNPDKENSMSISILLDNYCHPIALPKHQPTPDPEGDRGTAMLHDFTQQVQVIEMLQKVTLDIKSLSAEKYDVSSQVISQLKQKLENLQNSQLPESFRVPYDPGLKAGALAIEKCKVMASKKKPLWLEFKCADPTALSNETIGIIFKHGDDLRQDMLILQILRIMESIWETESLDLCLLPYGCISTGDKIGMIEIVKDATTIAKIQQSTVGNTGAFKDEVLNHWLKEKSPTEEKFQAAVERFVYSCAGYCVATFVLGIGDRHNDNIMITETGNLFHIDFGHILGNYKSFLGINKERVPFVLTPDFLFVMGTSGKKTSPHFQKFQDICVKAYLALRHHTNLLIILFSMMLMTGMPQLTSKEDIEYIRDALTVGKNEEDAKKYFLDQIEVCRDKGWTVQFNWFLHLVLGIKQGEKHSAYPYDVPDYA
As to B2, in the series with βARK1/PI3K interaction, the “endogenous βARK1/PI3K interaction” value is “no effect”. In addition, the catalytic activity entry in series [3] is reported as “indistinguishable from wild type PI3K”. For the same molecule, in the series with βARK1, the “association with purified βARK1 (immune complexes from HEK 293 extracts)” value is “not”.
